{"source": "paper PMC5585275", "target": "pre-translocation (PRE) complex of the E. coli 70S ribosome (E. coli) (UniProt P0A7K2)", "experiment": "stopped-flow fluorescence and FRET kinetics, global fit by numerical integration; PRE complexes (0.05 uM, six fluorescence reporters) mixed with saturating EF-G (4-5 uM), 1 mM GTP, 200 uM fusidic acid; buffer A (50 mM Tris-HCl pH 7.5, 70 mM NH4Cl, 30 mM KCl, 7 mM MgCl2), 37 °C; 5-step model, k-1/k1 constrained to 65/55 uM; KinTek Explorer", "data": [{"substance": "elongation factor G (from UniProt P0A6M8 1-704) (enzyme)", "values": [{"measurement": "kon", "result": "4.2e+07", "unit": "M⁻¹ s⁻¹"}]}]}
